Results from US20200079833A1 (AstraZeneca / MedImmune, published 2020).
Starred links: 1 amine or outer side, 2 acyl side, 3 side chain; linkers in the order of their positions; H or OH if unused. Non-standard residues stand in square brackets, D forms with d. Groups on a side chain read outwards from the residue. Primed or numbered codes have the meaning given here. No end group written: not given here. *: point of attachment. γGlu = O=C(O)[C@H](CCC(=O)[*:2])N[*:1]; αMeF = C[C@](N)(Cc1ccccc1)C(=O)O; αMeK = C[C@](N)(CCCCN)C(=O)O; Lauroyl = CCCCCCCCCCCC(=O)*; αMeS = C[C@](N)(CO)C(=O)O; PEG2′ = not defined here; Aib = CC(C)(N)C(=O)O

T1: glucose-dependent insulinotropic peptide (gastric inhibitory polypeptide) receptor (GIPR), primary cAMP assay … (human, UniProt P48546 22-466)
T1 sequence (looked up): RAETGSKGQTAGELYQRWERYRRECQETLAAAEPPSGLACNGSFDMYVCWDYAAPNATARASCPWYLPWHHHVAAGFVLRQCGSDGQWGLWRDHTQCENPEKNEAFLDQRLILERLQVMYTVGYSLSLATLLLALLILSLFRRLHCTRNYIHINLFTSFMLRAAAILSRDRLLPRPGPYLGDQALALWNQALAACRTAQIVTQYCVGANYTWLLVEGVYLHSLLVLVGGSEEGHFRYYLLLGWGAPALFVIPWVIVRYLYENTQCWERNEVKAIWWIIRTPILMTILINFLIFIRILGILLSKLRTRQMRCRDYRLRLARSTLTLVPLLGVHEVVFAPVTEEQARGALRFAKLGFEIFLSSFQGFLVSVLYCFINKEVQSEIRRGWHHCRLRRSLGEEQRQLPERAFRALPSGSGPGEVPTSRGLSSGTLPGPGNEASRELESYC


biological target: glucagon receptor (GCGR), primary cAMP assay cell line (human, UniProt P47871 26-477); assay: cell-based or functional assay
Sequence (P47871 26-477): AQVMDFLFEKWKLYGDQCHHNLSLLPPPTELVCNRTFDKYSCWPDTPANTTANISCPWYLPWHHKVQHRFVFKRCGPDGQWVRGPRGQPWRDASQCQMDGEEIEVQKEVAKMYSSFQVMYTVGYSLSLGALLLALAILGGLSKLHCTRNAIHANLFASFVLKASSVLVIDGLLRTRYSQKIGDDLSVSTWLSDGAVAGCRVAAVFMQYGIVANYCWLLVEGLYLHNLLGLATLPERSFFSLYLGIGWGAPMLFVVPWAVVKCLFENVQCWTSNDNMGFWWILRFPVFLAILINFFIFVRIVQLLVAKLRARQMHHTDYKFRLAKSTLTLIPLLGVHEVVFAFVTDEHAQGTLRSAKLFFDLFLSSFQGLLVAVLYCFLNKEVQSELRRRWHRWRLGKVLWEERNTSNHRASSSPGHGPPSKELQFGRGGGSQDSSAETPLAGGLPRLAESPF

Row | cAMP Primary assay EC50, n1 [nM] | cAMP Primary assay EC50, n2 [nM] | Binder
1 | 19.8 | 19.8 | H[Aib]EGS[αMeF]TSDVSK([PEG2′-PEG2′-γGlu-Lauroyl])YLEGEAA[αMeK]K([PEG2′-PEG2′-γGlu-Lauroyl])FIAFK([PEG2′-PEG2′-γGlu-Lauroyl])VEGG-NH2 [SEQ ID NO: 478]
2 | 19.6 | 19.6 | H[Aib]EGS[αMeF]TSDV[αMeS]SYK([PEG2′-PEG2′-γGlu-Lauroyl])EK([PEG2′-PEG2′-γGlu-Lauroyl])EAA[αMeK]EFIAFK([PEG2′-PEG2′-γGlu-Lauroyl])VEGG-NH2 [SEQ ID NO: 483]
3 | 19.6 | 19.6 | H[Aib]EGS[αMeF]TSDVSK([PEG2′-PEG2′-γGlu-Lauroyl])YLEGEK([PEG2′-PEG2′-γGlu-Lauroyl])A[αMeK]EFIAFK([PEG2′-PEG2′-γGlu-Lauroyl])VEGG-NH2 [SEQ ID NO: 477]
4 | 19.8 | 19.8 | H[Aib]EGS[αMeF]TSDV[αMeS]SK([PEG2′-PEG2′-γGlu-Lauroyl])LEGEK([PEG2′-PEG2′-γGlu-Lauroyl])A[αMeK]EFIAFK([PEG2′-PEG2′-γGlu-Lauroyl])VEGG-NH2 [SEQ ID NO: 481]
5 | 19.9 | 19.9 | H[Aib]EGS[αMeF]TSDK([PEG2′-PEG2′-γGlu-Lauroyl])SSYLEGEAA[αMeK]K([PEG2′-PEG2′-γGlu-Lauroyl])FIAFK([PEG2′-PEG2′-γGlu-Lauroyl])VEGG-NH2 [SEQ ID NO: 474]
6 | 19.9 | 19.9 | H[Aib]EGS[αMeF]TSDV[αMeS]SYK([PEG2′-PEG2′-γGlu-Lauroyl])EGEAA[αMeK]K([PEG2′-PEG2′-γGlu-Lauroyl])FIAFK([PEG2′-PEG2′-γGlu-Lauroyl])VEGG-NH2 [SEQ ID NO: 486]
7 | 19.8 | 19.8 | H[Aib]EGS[αMeF]TSDV[αMeS]SK([PEG2′-PEG2′-γGlu-Lauroyl])LEK([PEG2′-PEG2′-γGlu-Lauroyl])EAA[αMeK]EFIAFK([PEG2′-PEG2′-γGlu-Lauroyl])VEGG-NH2 [SEQ ID NO: 479]

biological target: GLP-1 receptor (GLP-1R), primary cAMP assay cell line (human, UniProt P43220 24-463); assay: cell-based or functional assay

Row | cAMP Primary assay EC50, Mean pM GLP-1R [pM] | cAMP Primary assay EC50, n1 [nM] | cAMP Primary assay EC50, n2 [nM] | Binder
8 | 118 | 0.103 | 0.134 | H[Aib]EGS[αMeF]TSDVSK([PEG2′-PEG2′-γGlu-Lauroyl])YLEGEAA[αMeK]K([PEG2′-PEG2′-γGlu-Lauroyl])FIAFK([PEG2′-PEG2′-γGlu-Lauroyl])VEGG-NH2 [SEQ ID NO: 478]
9 | 244 | 0.229 | 0.258 | H[Aib]EGS[αMeF]TSDV[αMeS]SYK([PEG2′-PEG2′-γGlu-Lauroyl])EK([PEG2′-PEG2′-γGlu-Lauroyl])EAA[αMeK]EFIAFK([PEG2′-PEG2′-γGlu-Lauroyl])VEGG-NH2 [SEQ ID NO: 483]
10 | 264 | 0.226 | 0.302 | H[Aib]EGS[αMeF]TSDVSK([PEG2′-PEG2′-γGlu-Lauroyl])YLEGEK([PEG2′-PEG2′-γGlu-Lauroyl])A[αMeK]EFIAFK([PEG2′-PEG2′-γGlu-Lauroyl])VEGG-NH2 [SEQ ID NO: 477]
11 | 143 | 0.137 | 0.149 | H[Aib]EGS[αMeF]TSDV[αMeS]SK([PEG2′-PEG2′-γGlu-Lauroyl])LEGEK([PEG2′-PEG2′-γGlu-Lauroyl])A[αMeK]EFIAFK([PEG2′-PEG2′-γGlu-Lauroyl])VEGG-NH2 [SEQ ID NO: 481]
12 | 290 | 0.279 | 0.3 | H[Aib]EGS[αMeF]TSDK([PEG2′-PEG2′-γGlu-Lauroyl])SSYLEGEAA[αMeK]K([PEG2′-PEG2′-γGlu-Lauroyl])FIAFK([PEG2′-PEG2′-γGlu-Lauroyl])VEGG-NH2 [SEQ ID NO: 474]
13 | 212 | 0.165 | 0.259 | H[Aib]EGS[αMeF]TSDV[αMeS]SYK([PEG2′-PEG2′-γGlu-Lauroyl])EGEAA[αMeK]K([PEG2′-PEG2′-γGlu-Lauroyl])FIAFK([PEG2′-PEG2′-γGlu-Lauroyl])VEGG-NH2 [SEQ ID NO: 486]
14 | 186 | 0.132 | 0.239 | H[Aib]EGS[αMeF]TSDV[αMeS]SK([PEG2′-PEG2′-γGlu-Lauroyl])LEK([PEG2′-PEG2′-γGlu-Lauroyl])EAA[αMeK]EFIAFK([PEG2′-PEG2′-γGlu-Lauroyl])VEGG-NH2 [SEQ ID NO: 479]

biological target: T1, glucose-dependent insulinotropic …; assay: cell-based or functional assay

Row | cAMP Primary assay EC50, n1 [nM] | cAMP Primary assay EC50, n2 [nM] | Binder
15 | 19.8 | 19.8 | H[Aib]EGS[αMeF]TSDVSK([PEG2′-PEG2′-γGlu-Lauroyl])YLEGEAA[αMeK]K([PEG2′-PEG2′-γGlu-Lauroyl])FIAFK([PEG2′-PEG2′-γGlu-Lauroyl])VEGG-NH2 [SEQ ID NO: 478]
16 | 19.6 | 19.6 | H[Aib]EGS[αMeF]TSDV[αMeS]SYK([PEG2′-PEG2′-γGlu-Lauroyl])EK([PEG2′-PEG2′-γGlu-Lauroyl])EAA[αMeK]EFIAFK([PEG2′-PEG2′-γGlu-Lauroyl])VEGG-NH2 [SEQ ID NO: 483]
17 | 19.6 | 19.6 | H[Aib]EGS[αMeF]TSDVSK([PEG2′-PEG2′-γGlu-Lauroyl])YLEGEK([PEG2′-PEG2′-γGlu-Lauroyl])A[αMeK]EFIAFK([PEG2′-PEG2′-γGlu-Lauroyl])VEGG-NH2 [SEQ ID NO: 477]
18 | 19.8 | 19.8 | H[Aib]EGS[αMeF]TSDV[αMeS]SK([PEG2′-PEG2′-γGlu-Lauroyl])LEGEK([PEG2′-PEG2′-γGlu-Lauroyl])A[αMeK]EFIAFK([PEG2′-PEG2′-γGlu-Lauroyl])VEGG-NH2 [SEQ ID NO: 481]
19 | 19.9 | 19.9 | H[Aib]EGS[αMeF]TSDK([PEG2′-PEG2′-γGlu-Lauroyl])SSYLEGEAA[αMeK]K([PEG2′-PEG2′-γGlu-Lauroyl])FIAFK([PEG2′-PEG2′-γGlu-Lauroyl])VEGG-NH2 [SEQ ID NO: 474]
20 | 19.9 | 19.9 | H[Aib]EGS[αMeF]TSDV[αMeS]SYK([PEG2′-PEG2′-γGlu-Lauroyl])EGEAA[αMeK]K([PEG2′-PEG2′-γGlu-Lauroyl])FIAFK([PEG2′-PEG2′-γGlu-Lauroyl])VEGG-NH2 [SEQ ID NO: 486]
21 | 19.8 | 19.8 | H[Aib]EGS[αMeF]TSDV[αMeS]SK([PEG2′-PEG2′-γGlu-Lauroyl])LEK([PEG2′-PEG2′-γGlu-Lauroyl])EAA[αMeK]EFIAFK([PEG2′-PEG2′-γGlu-Lauroyl])VEGG-NH2 [SEQ ID NO: 479]
